Residue numbers refer to the chain shown, from its start.
Target: T1, human ITIH-1 antigen (inter-alpha trypsin inhibitor heavy chain 1) (human)
T1 construct: Produced in HEK293F cells and purified; used as the immunogen; also called SHAP
Assay: biolayer interferometry, AR2G biosensor, antibody as ligand
Experimental: 5D6 and 9E1 were bound to ITIH1 with high affinity, as shown in the table below, and affinity was determined by AbClon Inc. using an AR2G (Bio-Sensor).

T1 sequence (chain, as listed by the source limits assumed): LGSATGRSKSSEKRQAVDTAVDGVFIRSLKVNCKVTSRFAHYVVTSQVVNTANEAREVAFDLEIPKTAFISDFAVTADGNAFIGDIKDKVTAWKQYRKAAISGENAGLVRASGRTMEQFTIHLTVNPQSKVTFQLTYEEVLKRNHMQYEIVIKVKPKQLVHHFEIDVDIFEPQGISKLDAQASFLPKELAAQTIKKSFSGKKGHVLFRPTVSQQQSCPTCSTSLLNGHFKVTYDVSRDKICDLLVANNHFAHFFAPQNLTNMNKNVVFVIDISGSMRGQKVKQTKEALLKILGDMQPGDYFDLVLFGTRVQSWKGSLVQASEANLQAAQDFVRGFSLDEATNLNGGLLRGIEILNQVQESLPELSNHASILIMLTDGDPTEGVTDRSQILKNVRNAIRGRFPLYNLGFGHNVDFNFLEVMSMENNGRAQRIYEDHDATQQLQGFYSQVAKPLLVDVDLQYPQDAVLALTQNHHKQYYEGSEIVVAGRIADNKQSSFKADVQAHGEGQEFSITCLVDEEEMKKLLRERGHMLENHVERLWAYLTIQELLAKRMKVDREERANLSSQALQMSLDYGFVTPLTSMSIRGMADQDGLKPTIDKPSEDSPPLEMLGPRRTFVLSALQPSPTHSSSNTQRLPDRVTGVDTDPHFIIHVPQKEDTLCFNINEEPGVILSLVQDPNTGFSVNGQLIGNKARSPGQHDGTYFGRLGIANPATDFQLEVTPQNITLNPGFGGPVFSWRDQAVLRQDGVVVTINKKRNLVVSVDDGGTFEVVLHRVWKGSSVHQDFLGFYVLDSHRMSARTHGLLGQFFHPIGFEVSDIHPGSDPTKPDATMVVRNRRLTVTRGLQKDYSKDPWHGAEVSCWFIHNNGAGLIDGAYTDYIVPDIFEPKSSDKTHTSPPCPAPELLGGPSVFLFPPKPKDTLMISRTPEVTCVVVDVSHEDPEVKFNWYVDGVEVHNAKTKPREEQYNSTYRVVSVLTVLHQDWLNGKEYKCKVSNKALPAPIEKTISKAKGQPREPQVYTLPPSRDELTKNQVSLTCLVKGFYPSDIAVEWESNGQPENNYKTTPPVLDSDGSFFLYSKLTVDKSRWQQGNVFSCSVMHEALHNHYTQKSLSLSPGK

B1: monoclonal antibody 9E1 against ITIH1 (antibody, V domains shown)
VH: EVQLQQSGTVLARPGASVKMSCRASGYSFTSYWMHWVKQRPGQGLEWIGSIYPGNTDTNYNQKFKGKAKLTAVTSASTAYMELSSLTNEDSAVYYCTRYGTSEGFAYWGQGTLVTVSA
VL: DIVMTQSPASLAVSLGQRATISCRASQSVSTSSYSYMHWYQQKPGQPPKLLIKYASNLESGVPARFSGSGSGTDFTLNIHPVEEEDSATYYCQHSWEIPPTFGGGTKLEIK
notes: Mouse (BALB/c) hybridoma monoclonal antibody made by AbClon Inc; also called antibody clone 9E1; 9E1 clonal antibody
- Kd: 0.133 nM
- koff: 4.45e-05 s⁻¹
- kon: 334000 M⁻¹ s⁻¹

B2: monoclonal antibody 5D6 against ITIH1 (antibody, V domains shown)
VH: EVQLQQSGAELVKPGTSVKMSCKASGYTFTSYWMHWVRQRPGQGLEWIGDIYPGTDSTNYNEKFKSKATLTVDTSSSTAYMQLSSLTSEDSAVYYCSRSGDYYDYWGQGTTVTVSS
VL: B1 VL with M4L, S87T, P100W
notes: Mouse (BALB/c) hybridoma monoclonal antibody made by AbClon Inc; also called antibody clone 5D6; 5D6 clonal antibody
- Kd: 0.243 nM
- koff: 7.05e-05 s⁻¹
- kon: 291000 M⁻¹ s⁻¹

— patent US20220411488A1 (APHARMA, published 2022)
